The results in this text go back to article PMC8457657.

The series concerns the target pseudotyped SARS-CoV-2 (spike on lentivirus), active (SARS-CoV-2) (UniProt P0DTC2). The series is described as follows: ELONA. Conditions: pH 7.2, pH 7.4, room temperature ([…], MST 10 min).

For “CCCGACCAGCCACCATCAGCAACTCTTCCGCGTCCATCCCTGCTG [SARS2-AR10]”, the dissociation constant (Kd) (usually the constant that tells how readily two partners part at equilibrium) came to 0.079 µM.
